Measurements published in patent US20230364254A1, “METHODS FOR TREATING CANCERS WITH ANTIBODY DRUG CONJUGATES (ADC) THAT BIND TO 191P4D12 PROTEINS” (priority 2020, published 2023).

Tested on: patients with locally advanced or metastatic urothelial cancer
Assay: Same phase 2 study: safety (adverse events, NCI CTCAE v4.03)
Format: in vivo, human
Description: Safety assessments will be based on the information collected through the safety surveillance process and will include the data from recorded adverse events (AEs) including SAEs, recording of concomitant medication, physical examination findings, cardiac monitoring, and laboratory tests.
The assessment of safety during the course of this study will consist of the surveillance and recording of AEs including SAEs, recording of concomitant medication, and measurements of protocol-specified physical examination findings, cardiac monitoring, and laboratory tests.
AE severity should be graded using the National Cancer Institute's Common Terminology Criteria for Adverse Events (NCI CTCAE), Version 4.03. These criteria are provided in the study manual.
An overview of AEs will provide a tabulation of the incidence of all AEs, treatment-emergent AEs, treatment-related AEs, Grade 3 and higher AEs. SAEs, treatment-related SAEs, deaths, and AEs leading to study treatment discontinuation. Adverse events will be defined as treatment emergent if they are newly occurring or worsened following study treatment.
AEs will be classified by system organ class and preferred tem using the Medical Dictionary for Regulatory Activities (MedDRA) and graded using NCI CTCAE, Version 4.03.
The incidence of AEs will be summarized by system organ class, preferred term, severity and relationship to study drug. In the event of multiple occurrences of the same AE in one patient, the AE will be counted once as the occurrence for the maximum grade. AEs leading to premature discontinuation of study drug will be summarized and listed in the same manner.

[1] = Total (N = 214), count (percent)
[2] = treatment-related TEAEs of interest
[3] = treatment-related TEAEs of interest, as of last follow-up
[4] = treatment-related TEAEs of interest, enfortumab vedotin 1.25 mg/kg, patients with locally advanced or metastatic urothelial cancer
[5] = treatment-related TEAEs of interest, most occurred in Cycle 1

Question: Which “Treatment-related AE leading to discontinuation: Multiple organ dysfunction syndrome” value (Total (N = 214)) does the source give for “enfortumab vedotin: Nectin-4 directed ADC: fully human anti-nectin-4 IgG1 kappa antibody (AGS-22C3) conjugated to MMAE via protease-cleavable maleimidocaproyl valine-citrulline linker” here?
Answer: 1 (0.5) n (%)

Question: What about the “Treatment-related AE leading to discontinuation: Muscular weakness” value (Total (N = 214)) of the same substance?
Answer: 1 (0.5) n (%)

Question: What about the “Treatment-related AE leading to discontinuation: Overall” value (Total (N = 214)) of the same substance?
Answer: 29 (13.6) n (%)

Question: And the “Treatment-related AE leading to discontinuation: Peripheral motor neuropathy” value (Total (N = 214))?
Answer: 1 (0.5) n (%)

Question: What about the “Treatment-related AE leading to discontinuation: Peripheral sensory neuropathy” value (Total (N = 214)) of the same substance?
Answer: 12 (5.6) n (%)

Question: And the “Treatment-related AE leading to discontinuation: Pneumonitis” value (Total (N = 214))?
Answer: 1 (0.5) n (%)

Question: What about the “Treatment-related AE leading to discontinuation: Stevens-Johnson syndrome” value (Total (N = 214)) of the same substance?
Answer: 1 (0.5) n (%)

Question: What about the “Treatment-related TEAEs” value (Total (N = 214)) of the same substance?
Answer: 203 (94.9) n (%)

Question: And the “Treatment-related TEAEs (all grades): Alopecia” value (Total (N = 214))?
Answer: 107 (50.0) n (%)

Question: What about the “Treatment-related TEAEs (all grades): Anaemia” value (Total (N = 214)) of the same substance?
Answer: 49 (22.9) n (%)

Question: And the “Treatment-related TEAEs (all grades): Aspartate aminotransferase increased” value (Total (N = 214))?
Answer: 24 (11.2) n (%)

Question: What about the “Treatment-related TEAEs (all grades): Decreased appetite” value (Total (N = 214)) of the same substance?
Answer: 84 (39.3) n (%)

Question: And the “Treatment-related TEAEs (all grades): Diarrhoea” value (Total (N = 214))?
Answer: 61 (28.5) n (%)

Question: And the “Treatment-related TEAEs (all grades): Dry eye” value (Total (N = 214))?
Answer: 36 (16.8) n (%)

Question: What about the “Treatment-related TEAEs (all grades): Dry skin” value (Total (N = 214)) of the same substance?
Answer: 46 (21.5) n (%)

Question: What about the “Treatment-related TEAEs (all grades): Dysgeusia” value (Total (N = 214)) of the same substance?
Answer: 71 (33.2) n (%)

Question: What about the “Treatment-related TEAEs (all grades): Fatigue” value (Total (N = 214)) of the same substance?
Answer: 92 (43.0) n (%)

Question: And the “Treatment-related TEAEs (all grades): Lacrimation increased” value (Total (N = 214))?
Answer: 30 (14.0) n (%)

Question: What about the “Treatment-related TEAEs (all grades): Nausea” value (Total (N = 214)) of the same substance?
Answer: 70 (32.7) n (%)

Question: What about the “Treatment-related TEAEs (all grades): Neutropenia” value (Total (N = 214)) of the same substance?
Answer: 24 (11.2) n (%)

Question: And the “Treatment-related TEAEs (all grades): Oedema peripheral” value (Total (N = 214))?
Answer: 25 (11.7) n (%)

Question: And the “Treatment-related TEAEs (all grades): Overall” value (Total (N = 214))?
Answer: 203 (94.9) n (%)

Question: And the “Treatment-related TEAEs (all grades): Peripheral sensory neuropathy” value (Total (N = 214))?
Answer: 92 (43.0) n (%)

Question: And the “Treatment-related TEAEs (all grades): Pruritus” value (Total (N = 214))?
Answer: 59 (27.6) n (%)

Question: And the “Treatment-related TEAEs (all grades): Rash maculo-papular” value (Total (N = 214))?
Answer: 55 (25.7) n (%)

Question: And the “Treatment-related TEAEs (all grades): Vomiting” value (Total (N = 214))?
Answer: 26 (12.1) n (%)

Question: And the “Treatment-related TEAEs (all grades): Weight decreased” value (Total (N = 214))?
Answer: 52 (24.3) n (%)

Question: What about the “Treatment-related TEAEs leading to death” value (Total (N = 214)) of the same substance?
Answer: 3 (1.4) n (%)

Question: And the “Treatment-related TEAEs leading to treatment discontinuation” value (Total (N = 214))?
Answer: 29 (13.6) n (%)

Question: What about the “Treatment-related TEAEs ≥Grade 3: Acute kidney injury” value (Total (N = 214)) of the same substance?
Answer: 5 (2.3) n (%)

Question: What about the “Treatment-related TEAEs ≥Grade 3: Amylase increased” value (Total (N = 214)) of the same substance?
Answer: 6 (2.8) n (%)

Question: What about the “Treatment-related TEAEs ≥Grade 3: Anaemia” value (Total (N = 214)) of the same substance?
Answer: 14 (6.5) n (%)

Question: And the “Treatment-related TEAEs ≥Grade 3: Aspartate aminotransferase increased” value (Total (N = 214))?
Answer: 6 (2.8) n (%)

Question: What about the “Treatment-related TEAEs ≥Grade 3: Decreased appetite” value (Total (N = 214)) of the same substance?
Answer: 6 (2.8) n (%)

Question: What about the “Treatment-related TEAEs ≥Grade 3: Diarrhoea” value (Total (N = 214)) of the same substance?
Answer: 8 (3.7) n (%)

Question: And the “Treatment-related TEAEs ≥Grade 3: Fatigue” value (Total (N = 214))?
Answer: 14 (6.5) n (%)

Question: And the “Treatment-related TEAEs ≥Grade 3: Febrile neutropenia” value (Total (N = 214))?
Answer: 6 (2.8) n (%)

Question: And the “Treatment-related TEAEs ≥Grade 3: Hyperglycaemia” value (Total (N = 214))?
Answer: 10 (4.7) n (%)

Question: What about the “Treatment-related TEAEs ≥Grade 3: Hyponatraemia” value (Total (N = 214)) of the same substance?
Answer: 6 (2.8) n (%)

Question: What about the “Treatment-related TEAEs ≥Grade 3: Lipase increased” value (Total (N = 214)) of the same substance?
Answer: 10 (4.7) n (%)

Question: And the “Treatment-related TEAEs ≥Grade 3: Neutropenia” value (Total (N = 214))?
Answer: 18 (8.4) n (%)

Question: And the “Treatment-related TEAEs ≥Grade 3: Neutrophil count decreased” value (Total (N = 214))?
Answer: 16 (2.8) n (%)

Question: And the “Treatment-related TEAEs ≥Grade 3: Overall” value (Total (N = 214))?
Answer: 119 (55.6) n (%)

Question: And the “Treatment-related TEAEs ≥Grade 3: Peripheral sensory neuropathy” value (Total (N = 214))?
Answer: 5 (2.3) n (%)

Question: What about the “Treatment-related TEAEs ≥Grade 3: Pruritus” value (Total (N = 214)) of the same substance?
Answer: 5 (2.3) n (%)

Question: What about the “Treatment-related TEAEs ≥Grade 3: Rash erythematous” value (Total (N = 214)) of the same substance?
Answer: 6 (2.8) n (%)

Question: What about the “Treatment-related TEAEs ≥Grade 3: Rash maculo-papular” value (Total (N = 214)) of the same substance?
Answer: 12 (5.6) n (%)

Question: And the “Treatment-related grade 3-5 TEAEs” value (Total (N = 214))?
Answer: 119 (55.6) n (%)

Question: What about the “Treatment-related serious TEAEs” value (Total (N = 214)) of the same substance?
Answer: 39 (18.2) n (%)

Question: And the “TEAEs leading to death (excluding disease progression): Acute kidney injury” value [1]?
Answer: 2 (0.9)

Question: And the “TEAEs leading to death (excluding disease progression): Acute respiratory failure” value [1]?
Answer: 1 (0.5)

Question: And the “TEAEs leading to death (excluding disease progression): Cardiac disorder” value [1]?
Answer: 1 (0.5)

Question: What about the “TEAEs leading to death (excluding disease progression): Metabolic acidosis” value [1] of the same substance?
Answer: 1 (0.5)

Question: What about the “TEAEs leading to death (excluding disease progression): Multiple organ dysfunction syndrome” value [1] of the same substance?
Answer: 1 (0.5)

Question: What about the “TEAEs leading to death (excluding disease progression): Overall” value [1] of the same substance?
Answer: 9 (4.2)

Question: And the “TEAEs leading to death (excluding disease progression): Pneumonia aspiration” value [1]?
Answer: 1 (0.5)

Question: And the “TEAEs leading to death (excluding disease progression): Sepsis” value [1]?
Answer: 2 (0.9)

Question: And the “Discontinuation due to treatment-related peripheral neuropathy” value (cohort 1)?
Answer: 6%

Question: And the “Discontinuation rate due to treatment-related AEs” value (cohort 1)?
Answer: 12%

Question: What about the “Grade 3 or Grade 4 treatment-related TEAE: anemia” value (cohort 1) of the same substance?
Answer: 7%

Question: What about the “Grade 3 or Grade 4 treatment-related TEAE: fatigue” value (cohort 1) of the same substance?
Answer: 6%

Question: And the “Grade 3 or Grade 4 treatment-related TEAE: neutropenia” value (cohort 1)?
Answer: 8%

Question: What about the “SAE (unrelated and related): cellulitis” value (cohort 1) of the same substance?
Answer: 4.8%

Question: And the “SAE (unrelated and related): urinary tract infection” value (cohort 1)?
Answer: 4.8%

Question: What about the “cases of Stevens-Johnson Syndrome reported” value (cohort 1) of the same substance?
Answer: One

Question: What about the “related SAE: febrile neutropenia” value (cohort 1) of the same substance?
Answer: 4%

Question: What about the “subjects with a Grade 3 or Grade 4 treatment-related TEAE” value (cohort 1) of the same substance?
Answer: 54%

Question: And the “deaths assessed as treatment-related” value (cohort 1, interstitial lung disease)?
Answer: one and One

Question: What about the “Discontinuation due to treatment-related peripheral neuropathy” value (cohort 2) of the same substance?
Answer: 4.5%

Question: And the “Discontinuation rate due to treatment-related AEs” value (cohort 2)?
Answer: 15.7%

Question: And the “SAE (unrelated and related): acute kidney injury” value (cohort 2)?
Answer: 10.1%

Question: And the “deaths assessed as treatment-related by investigators” value (cohort 2)?
Answer: Four

Question: And the “related SAE: acute kidney injury” value (cohort 2)?
Answer: 3.4%

Question: And the “subjects with a treatment-related TEAE greater than or equal to Grade 3” value (cohort 2)?
Answer: 55.1%

Question: And the “treatment-related TEAE ≥Grade 3: fatigue” value (cohort 2)?
Answer: 6.7%

Question: And the “treatment-related TEAE ≥Grade 3: neutropenia” value (cohort 2)?
Answer: 9%

Question: And the “treatment-related TEAE ≥Grade 3: rash maculo-popular” value (cohort 2)?
Answer: 7.9%

Question: And the “Hyperglycemia, >Grade 3” value [2]?
Answer: 6%

Question: And the “Peripheral Neuropathy, >Grade 3” value [2]?
Answer: 8%

Question: And the “Peripheral Neuropathy, Median Onset” value [2]?
Answer: 2.6 months

Question: What about the “Skin Reactions, >Grade 3” value [2] of the same substance?
Answer: 17%

Question: And the “Hyperglycemia, Resolution/improvement” value [3]?
Answer: 89%

Question: What about the “Peripheral Neuropathy, Resolution/improvement” value [3] of the same substance?
Answer: 54%

Question: What about the “Skin Reactions, Resolution/improvement” value [3] of the same substance?
Answer: 80%

Question: What about the “Hyperglycemia, Any grade” value [4] of the same substance?
Answer: 10%

Question: And the “Peripheral Neuropathy, Any grade” value [4]?
Answer: 56%

Question: What about the “Skin Reactions, Any grade” value [4] of the same substance?
Answer: 61%

Question: And the “Hyperglycemia, Median Onset” value [5]?
Answer: 0.5ª months

Question: And the “Skin Reactions, Median Onset” value [5]?
Answer: 0.5ª months
